The assay concerns the target T1, GST-Hof1-N-terminus (1–350 aa) (S. cerevisiae, UniProt Q05080 1-350).
T1 construct: Hof1, S. cerevisiae, N-terminal fragment with the F-BAR domain, residues 1-350, amplified from genomic DNA and cloned into pGEX-5X1; also called GST-Hof1^F-BAR; GST-Hof1^(N (1–350)); source: E. coli BL21-DE3, purified on glutathione Sepharose 4B and kept on the resin; not shown: GST, N-terminal, kept
T1 sequence (looked up): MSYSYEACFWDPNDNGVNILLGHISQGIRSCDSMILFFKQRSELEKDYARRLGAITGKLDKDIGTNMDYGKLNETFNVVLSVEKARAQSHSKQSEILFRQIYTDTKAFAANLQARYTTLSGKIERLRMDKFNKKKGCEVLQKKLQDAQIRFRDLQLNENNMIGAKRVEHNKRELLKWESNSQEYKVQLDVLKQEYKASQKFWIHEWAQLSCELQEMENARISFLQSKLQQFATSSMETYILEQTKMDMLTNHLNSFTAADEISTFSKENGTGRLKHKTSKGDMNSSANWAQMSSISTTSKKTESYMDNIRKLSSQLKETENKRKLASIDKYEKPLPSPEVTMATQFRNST
Nature of the assay: pull-down; GST-Hof1 (1-350) (~3 µg) on glutathione beads mixed with ~1 µg 6His-bdSUMO-Gin4-KA1; PBS, 0.2% NP-40, 1 hr at 4°C; washed with PBS, 1% NP-40; western blot with anti-His and anti-GST. Particulars: both partners purified. A general note: In western blotting, separated proteins are transferred to a membrane and probed.

B1: 6His-bdSUMO-Gin4-KA1 (1003–1142 aa) (domain or fragment, S. cerevisiae, UniProt Q12263 1003-1142, looked up)
chain: GSQAKDHSKDHLKEHKQDKNTAIGNGSFFRKFSKSSDKTMELYAKISAKQLFNGLEKLLRGWTQYGLKNIKSHPNNLTLTGKLSSDNIFSLRSTLFEVNIYPRGKMSVVQFKKVSGSFKAVKKLVNEVENVLNKEGVLQK
notes: also called 6xHis-bdSUMO-Gin4^KA1; source: E. coli BL21-DE3, purified (Ni-NTA, buffer exchange); not shown: His6, N-terminal, kept; bdSUMO, N-terminal, kept
Turning to B1, the binding result was “binds”.

Source of the values: paper PMC13557712, “Nim1-related kinases regulate septin organization and cytokinesis by modulating Hof1 at the cell division site” (eLife, 2026).
